Laboratory results as given in US20210025890A1 (Genentech, published 2021).
One block for each binder: values may come before it.

What was measured:
intact human FGF21 [1] = target: T1, intact human FGF21 (human, UniProt Q9NSA1 29-209); test: sandwich ELISA; capture mAb4, detection mAb11
T1 construct: also called full-length, uncleaved FGF21; iFGF21
T1 sequence: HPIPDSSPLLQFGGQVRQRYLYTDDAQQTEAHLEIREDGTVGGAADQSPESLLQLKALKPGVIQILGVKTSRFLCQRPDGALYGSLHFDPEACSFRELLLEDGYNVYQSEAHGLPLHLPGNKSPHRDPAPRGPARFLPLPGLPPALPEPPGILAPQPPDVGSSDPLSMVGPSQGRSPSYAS
Description: (§1) The absorbance values were plotted as a function of antibody concentration and the data were fitted to a three parameter equation for each antibody using Prism 6 (GraphPad Software, Inc., La Jolla, Calif.). The most consistent result was observed when antibodies mAb4 or 9 were used as the capture antibody and antibody mAb11 or mAb15 was used as the detector antibody (FIG. 2 and Table 7). Therefore, mAb8 and 16 were removed from further analysis.

FAP-cleaved human FGF21 [2] = target: T2, FAP-cleaved human FGF21 (human, UniProt Q9NSA1 29-199); test: sandwich ELISA; capture mAb4, detection mAb11
T2 construct: Made by digesting intact human FGF21 with human FAP; also called cleaved FGF21; cFGF21
T2 sequence: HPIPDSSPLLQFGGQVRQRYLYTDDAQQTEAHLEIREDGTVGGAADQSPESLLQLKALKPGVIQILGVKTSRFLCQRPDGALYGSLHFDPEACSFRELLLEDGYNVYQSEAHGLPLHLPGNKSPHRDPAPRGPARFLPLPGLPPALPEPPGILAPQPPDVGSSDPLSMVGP
Description: as §1

intact human FGF21 [3] = target: T1, intact human FGF21; test: sandwich ELISA, intact human FGF21; capture mAb4, detector mAb1
Description: (§2) The absorbance values were plotted as a function of antibody concentration and the data were fitted to a three parameter equation to calculate the half maximal effective concentration (EC₅₀) values for each antibody using Prism 6 (GraphPad Software, Inc., La Jolla, Calif.) (Table 6).

intact human FGF21 [4] = target: T1, intact human FGF21; test: sandwich ELISA, intact human FGF21; capture mAb4, detector mAb10
Description: as §2

intact human FGF21 [5] = target: T1, intact human FGF21; test: sandwich ELISA; coated primary Ab, FGF21 titrated, detector biotinylated goat anti-FGF21 pAb BAF2539
Method: (§3) IgG obtained from the selected 20 hybridomas identified in Example 1 were further characterized by ELISA. ELISA was performed as follows: 96 well MaxiSorp plate (439454, Nalge Nunc International; Rochester, N.Y.) was coated with 1 μg/mL of anti-FGF21 mAbs or anti-FGF21 sheep pAbs (Cat. No. RD184108100, Biovendor, Asheville, N.C.) in coating buffer (50 mM sodium carbonate, pH 9.6) overnight at 4° C. […] After washing with the Washing buffer, the plate was incubated with 0.5 μg/ml of the secondary antibody (R&D Systems, biotinylated goat anti-FGF21 pAb BAF2539) for 1-2 hr at room temperature. After washing with Washing buffer, the plate was incubated with High Sensitivity Streptavidin-HRP (PIERCE Cat. No. 21130) diluted 1:1,000 in assay buffer. After washing with the Washing buffer, the binding of anti-FGF21 to recombinant FGF21 was assessed by adding substrate 3, 3′, 5, 5′ tetramethyl benzidine (TMBE 1000, Moss; Pasadena, Md.). The mean absorbance values from duplicate wells were plotted as a function of antibody concentration and the data were fitted to a three parameter equation to calculate the half maximal effective concentration (EC₅₀) values for each antibody using Prism 6 (GraphPad Software, Inc., La Jolla, Calif.) (Table 2).

FAP-cleaved human FGF21 [6] = target: T2, FAP-cleaved human FGF21; test: as above
Method: as §3

intact human FGF21 [7] = target: T1, intact human FGF21; test: sandwich ELISA; capture mAb4, detection mAb15
Description: as §1

FAP-cleaved human FGF21 [8] = target: T2, FAP-cleaved human FGF21; test: sandwich ELISA; capture mAb4, detection mAb15
Description: as §1

intact human FGF21 [9] = target: T1, intact human FGF21; test: sandwich ELISA, intact human FGF21; capture mAb4, detector mAb11
Description: as §2

FAP-cleaved human FGF21 [10] = target: T2, FAP-cleaved human FGF21; test: sandwich ELISA; EC50 on FAP-cleaved FGF21 over EC50 on intact FGF21
Method: as §3

intact human FGF21 [11] = target: T1, intact human FGF21; test: sandwich ELISA; capture mAb4, detection mAb16
Description: as §1

FAP-cleaved human FGF21 [12] = target: T2, FAP-cleaved human FGF21; test: sandwich ELISA; capture mAb4, detection mAb16
Description: as §1

intact human FGF21 [13] = target: T1, intact human FGF21; test: sandwich ELISA; capture mAb15, detection mAb11
Description: as §1

FAP-cleaved human FGF21 [14] = target: T2, FAP-cleaved human FGF21; test: sandwich ELISA; capture mAb15, detection mAb11
Description: as §1

intact human FGF21 [15] = target: T1, intact human FGF21; test: sandwich ELISA; capture mAb15, detection mAb4
Description: as §1

FAP-cleaved human FGF21 [16] = target: T2, FAP-cleaved human FGF21; test: sandwich ELISA; capture mAb15, detection mAb4
Description: as §1

intact human FGF21 [17] = target: T1, intact human FGF21; test: sandwich ELISA; capture mAb9, detection mAb16
Description: as §1

FAP-cleaved human FGF21 [18] = target: T2, FAP-cleaved human FGF21; test: sandwich ELISA; capture mAb9, detection mAb16
Description: as §1

intact human FGF21 [19] = target: T1, intact human FGF21; test: sandwich ELISA, intact human FGF21; capture mAb9, detector mAb11
intact human FGF21 [20] = target: T1, intact human FGF21; test: sandwich ELISA; capture mAb9, detection mAb11
Description: as §1

FAP-cleaved human FGF21 [21] = target: T2, FAP-cleaved human FGF21; test: sandwich ELISA; capture mAb9, detection mAb11
Description: as §1

intact human FGF21 [22] = target: T1, intact human FGF21; test: sandwich ELISA, intact human FGF21; capture mAb9, detector mAb1
intact human FGF21 [23] = target: T1, intact human FGF21; test: sandwich ELISA, intact human FGF21; capture mAb9, detector mAb10
Description: as §2

intact human FGF21 [24] = target: T1, intact human FGF21; test: sandwich ELISA; capture mAb9, detection mAb15
Description: as §1

FAP-cleaved human FGF21 [25] = target: T2, FAP-cleaved human FGF21; test: sandwich ELISA; capture mAb9, detection mAb15
Description: as §1

intact human FGF21 [26] = target: T1, intact human FGF21; test: sandwich ELISA; capture mAb11, detection mAb15
Description: as §1

FAP-cleaved human FGF21 [27] = target: T2, FAP-cleaved human FGF21; test: sandwich ELISA; capture mAb11, detection mAb15
Description: as §1

intact human FGF21 [28] = target: T1, intact human FGF21; test: sandwich ELISA; capture mAb11, detection mAb4
Description: as §1

FAP-cleaved human FGF21 [29] = target: T2, FAP-cleaved human FGF21; test: sandwich ELISA; capture mAb11, detection mAb4
Description: as §1

intact human FGF21 [30] = target: T1, intact human FGF21; test: sandwich ELISA, intact human FGF21; capture mAb11, detector mAb4
intact human FGF21 [31] = target: T1, intact human FGF21; test: sandwich ELISA, intact human FGF21; capture mAb11, detector mAb9

- EC50 (intact human FGF21 [1]): 0.195 ng/mL
- EC50 (FAP-cleaved human FGF21 [2]): 0.148 ng/mL
- EC50 (intact human FGF21 [3]): 0.193 ng/mL
- EC50 (intact human FGF21 [4]): 0.108 ng/mL
- EC50 (intact human FGF21 [5]): 0.09 ng/mL
- EC50 (FAP-cleaved human FGF21 [6]): 0.17 ng/mL
- EC50 (intact human FGF21 [7]): 0.232 ng/mL
- EC50 (FAP-cleaved human FGF21 [8]): 0.263 ng/mL
- EC50 (intact human FGF21 [9]): 0.133 ng/mL
- EC50 ratio (Cleaved/Intact) (FAP-cleaved human FGF21 [10]): 1.9
- EC50 (intact human FGF21 [11]): 1.25 ng/mL
- EC50 (FAP-cleaved human FGF21 [12]): 7.04 ng/mL
B1: mAb4 (antibody, V domains shown)
VH: EVKLVESGGDLVKPGGSLKLSCAASGFTFSSYGMSWVRQTPDKRLEWVATISTGGGYTYYPDSVKGRFTISRDNAKNTLYLQMSSLRSEDTAMYYCARHDLVDWYFDVWGTGTTVTVSS
VL: QIVLTQSPAIMSAPLGERVTMTCTASSSVSSSYLHWYQQKPGSSPKVWIYRTTNLASGVPTRFSGSGSGTSYSLTISSMEAEDAATYYCHQYHRSPPTWTFGGGTKLEIKR
notes: Biotinylated when used as detector, coupled to beads in the Simoa assays; also called BIO-4 (biotinylated); antibody 4

- EC50 (intact human FGF21 [13]): 1.39 ng/mL
- EC50 (FAP-cleaved human FGF21 [14]): 1.24 ng/mL
- EC50 (intact human FGF21 [15]): 0.537 ng/mL
- EC50 (FAP-cleaved human FGF21 [16]): 0.562 ng/mL
B2: mAb15 (antibody, V domains shown)
VH: QVQLIQSGPGLVQPSQSLSITCTVSGFSLTGYAIHWVRQSPGKGLEWLGMIWKSGNTDYNAAFMSRLSITKDNSKSQVFFKMNSLQADDTAIYYCARNGYDYEFVYWGQGTLVTVSA
VL: DVLMTQTPLSLPVSLGDQASISCRSSQIIVHNNGDTYLEWYLQKPGQSPKLLIYKISNRFSGVPDRFSGSGSGTDFTLKISRVEAEDLGVYYCFQGSHVPYTFGGGTKLEIKR
notes: Biotinylated when used as detector; also called BIO-15 (biotinylated); mAb15-Biotin

- EC50 (intact human FGF21 [17]): 1.45 ng/mL
- EC50 (FAP-cleaved human FGF21 [18]): 6.23 ng/mL
- EC50 (intact human FGF21 [19]): 0.156 ng/mL
- EC50 (intact human FGF21 [20]): 0.166 ng/mL
- EC50 (FAP-cleaved human FGF21 [21]): 0.156 ng/mL
- EC50 (intact human FGF21 [22]): 0.249 ng/mL
- EC50 (intact human FGF21 [5]): 0.855 ng/mL
- EC50 (FAP-cleaved human FGF21 [6]): 1.39 ng/mL
- EC50 (intact human FGF21 [23]): 0.161 ng/mL
- EC50 ratio (Cleaved/Intact) (FAP-cleaved human FGF21 [10]): 1.6
- EC50 (intact human FGF21 [24]): 0.431 ng/mL
- EC50 (FAP-cleaved human FGF21 [25]): 0.363 ng/mL
B3: mAb9 (antibody, V domains shown)
VH: EVQLQQSGPELVKPGASVKIPCKASGYTFTDYYMGWVKQSHGKSLEWIGDINPNNGVTINNQNFKGKATLTVDKSSSTAYMELRSLASEDTAVYYCTRGYGGALDYWGQGTSVTVSS
VL: DIQMTQSPASLSASVGETVIITCRASENIYSYLAWYQQKQGKSPQLLVYNIRTLAEGVPSRFSGSGSGTQFSLKINSLQPEDFGSYYCQHHYDSPWTFGGGTKLEIKR
notes: also called BIO-9 (biotinylated); antibody 9

- EC50 (intact human FGF21 [26]): 0.774 ng/mL
- EC50 (FAP-cleaved human FGF21 [27]): 0.63 ng/mL
- EC50 (intact human FGF21 [28]): 0.205 ng/mL
- EC50 (FAP-cleaved human FGF21 [29]): 0.204 ng/mL
- EC50 (intact human FGF21 [5]): 0.149 ng/mL
- EC50 (FAP-cleaved human FGF21 [6]): 0.318 ng/mL
- EC50 ratio (Cleaved/Intact) (FAP-cleaved human FGF21 [10]): 2.1
- EC50 (intact human FGF21 [30]): 0.161 ng/mL
- EC50 (intact human FGF21 [31]): 0.195 ng/mL
B4: mAb11 (antibody, V domains shown)
VH: QVQLQQSGAELARPGASVKLSCKASGYTFTNYGISWVKQRTGQGLEWIGEIYPRSDNTYYNEKFKGKATLTADKSSSTAYMELRSLTSEDSAVYFCTRSDYGFFDYWGQGTTLTVSS
VL: QIVLTQSPALMSASPGERVTMTCSAGSSVSYMYWYQQKPRSSPKPWIYLTSNLASGVPARFSGSGSGTSYSLTISSMEAEDAATYYCQQWSSNPRTFGGGTKLEIKR
notes: Biotinylated when used as detector; also called BIO-11 (biotinylated); antibody 11
